{"source": "patent US20240100180A1", "target": "CLDN18.2 on lipoparticles", "experiment": "ELISA on CLDN18.2-lipoparticles"}
{"substance": "IMAB362 (antibody)", "values": [{"measurement": "EC50", "value": 0.0515, "unit": "µg/mL"}]}
